In patent US20170183396A1 (published 2017) one finds Kd data, which are given here for two molecules.

For test [1], the target named is ZEBOV GP (Zaire ebolavirus) (UniProt Q05320). In words: affinity for recombinant ZEBOV GP; method not described.
A further test deals with T1, ZEBOV GP (Zaire ebolavirus, UniProt Q05320 33-650).
T1 sequence: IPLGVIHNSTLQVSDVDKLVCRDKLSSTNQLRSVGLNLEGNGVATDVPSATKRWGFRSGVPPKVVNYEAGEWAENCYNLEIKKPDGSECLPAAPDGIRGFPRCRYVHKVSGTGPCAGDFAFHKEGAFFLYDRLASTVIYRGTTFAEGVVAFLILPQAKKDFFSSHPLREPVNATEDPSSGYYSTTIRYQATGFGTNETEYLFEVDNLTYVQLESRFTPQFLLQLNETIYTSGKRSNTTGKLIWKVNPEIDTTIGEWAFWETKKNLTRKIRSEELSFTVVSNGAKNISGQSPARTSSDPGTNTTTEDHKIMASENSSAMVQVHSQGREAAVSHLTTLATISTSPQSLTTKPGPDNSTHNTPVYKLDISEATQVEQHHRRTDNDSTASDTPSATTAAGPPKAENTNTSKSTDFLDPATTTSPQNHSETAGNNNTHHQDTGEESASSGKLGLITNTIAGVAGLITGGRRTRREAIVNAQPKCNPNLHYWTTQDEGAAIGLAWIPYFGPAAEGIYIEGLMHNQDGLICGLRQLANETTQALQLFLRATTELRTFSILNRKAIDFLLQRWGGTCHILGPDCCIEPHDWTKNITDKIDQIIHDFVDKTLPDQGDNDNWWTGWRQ
The test is described as above.

By Kd is commonly meant the equilibrium constant for the complex coming apart. With USAMRIID mAb 13F6 (antibody), the Kd in test [1] turned out to be 0.33 nM.

B1: CAN9G1 monoclonal antibody (antibody, V domains shown)
VH: ERQLVESGGGVVKPGESLKLSCAASGFAFSSYDMSWVRQTPEKRLEWVAYSSRGGGFTYYPDTVKGRFTIARDNAKNTLHLQMSSLKSEDTAMYYCATHYYGPLYAMDYWGQGTSVTVSS
VL: QLVLTQSSSASFSLGASAKLTCTLSSQHSTFTIEWYQQQPLKAPKYVMELKKDGSHSTGDGIPDRFSGSSSGADRYLWISNIQPEDEAMYICGVGDTIKEQFVYVFGGGTKVTVL
With B1, in the test with ZEBOV GP, the Kd came out at 0.27 nM.
